From patent US20130309248A1 come the findings set out here.

Assay [1] addresses full-length recombinant H3 HA (A/Wisconsin/67/2005) on PER.C6 cells (influenza A virus (H3N2)). The assay is described as follows: FACS, IgG 5 µg/ml, HA-expressing PER.C6 cells; untransfected MFI 4.
Assay [2] concerns the target full-length recombinant H1 HA (A/New Caledonia/20/1999) on PER.C6 cells (influenza A virus (H1N1)). The description is as above.
Assay [3] deals with full-length recombinant H7 HA (A/Netherlands/219/2003) on PER.C6 cells (influenza A virus (H7N7)). The description is as above.
Assay [4] concerns the target 3 H1N1 strains (1999-2007). The assay is described as follows: cell-based or functional assay.
The target in assay [5] is full-length recombinant H3 HA (A/Wisconsin/67/2005) on PER.C6 cells (influenza A virus (H3N2)). The assay can be described thus: FACS, IgG 5 µg/ml, HA-expressing PER.C6 cells; untransfected MFI 6.
Assay [6] has as its target full-length recombinant H1 HA (A/New Caledonia/20/1999) on PER.C6 cells (influenza A virus (H1N1)). The assay is described as above.
In assay [7] the target is full-length recombinant H7 HA (A/Netherlands/219/2003) on PER.C6 cells (influenza A virus (H7N7)). Described as above.
The target in assay [8] is HA of virus A/Johannesburg/33/94 (H3N2) (influenza A virus (H3N2)). The assay can be described thus: cell-based or functional assay.
The target of assay [9] is HA of virus A/Chick/Germany/N/49 (H10) (influenza A virus (H10)). The assay is described as follows: cell-based or functional assay.
Assay [10] concerns the target HA of virus A/Wisconsin/67/2005 (H3N2) (influenza A virus (H3N2)). The assay can be described thus: cell-based or functional assay.
The target in assay [11] is HA of virus A/Mallard/Netherlands/12/2000 (H7N3) (influenza A virus (H7N3)). The assay is described as follows: cell-based or functional assay.
For assay [12], the target named is HA of virus A/Panama/2000/1999 (H3N2) (influenza A virus (H3N2)). The assay can be described thus: cell-based or functional assay.
Assay [13] deals with HA of virus A/Brisbane/59/2007 (H1N1) (influenza A virus (H1N1)). The assay can be described thus: cell-based or functional assay.
Assay [14] concerns the target HA of virus A/Hiroshima/52/2005 (H3N2) (influenza A virus (H3N2)). The assay can be described thus: cell-based or functional assay.
Assay [15] has as its target HA of virus A/Solomon Islands/IVR-145 (H1N1) (influenza A virus (H1N1)). The assay is described as follows: cell-based or functional assay.
For assay [16], the target named is HA of virus A/New Caledonia/20/1999 (H1N1) (influenza A virus (H1N1)). The assay is described as follows: cell-based or functional assay.
The target of assay [17] is full-length recombinant H3 HA (A/Wisconsin/67/2005) on PER.C6 cells (influenza A virus (H3N2)). The assay can be described thus: FACS, IgG 5 µg/ml, HA-expressing PER.C6 cells; untransfected MFI 21.
The target of assay [18] is full-length recombinant H1 HA (A/New Caledonia/20/1999) on PER.C6 cells (influenza A virus (H1N1)). The description is as above.
Assay [19] deals with full-length recombinant H7 HA (A/Netherlands/219/2003) on PER.C6 cells (influenza A virus (H7N7)). Described as above.

B1: CR8041 (antibody, V domains shown)
VH: QVQLVQSGAEVKKPGASVKVSCQASGYTFTSFGLSWVRQAPGQGPEWMGWISAYNGEIKYAQKFQGRVSMTTDTSTRTAYMEVRSLRPDDTAVYYCAREPPLYFSSWSLDF
VL: EIVLTQSPGTLSLSPGERATLSCRASQSVSSNYLAWFQQKPGQAPRLLIYGASRRATGIPDRFSGSGSGTDFTLTISRLEPEDFAVYYCQQYDSSPRT
Turning to B1, the MFI turned out to be 364 MFI in assay [1], 4 MFI in [2] and 120 MFI in [3]. The SK50 titer in assay [4] is over 40 µg/mL.

B2: CR8050 (antibody, V domains shown)
VH: EIVMTQSPGTLSLSPGERATLSCRASQSVSRNYLAWYQQKPGLAPRLLISGASSRATGVPDRFSGRGSDTDFTLTISRLEPEDFAVYYCQHYGSVLVA
VL: QVQLQESGPGLVKPSETLSLTCTVSGGSVSSGTYYWSWIRQPPGKGLEWIGDISYSGSTNYNPSLKSRVTISRDTSKNLVSLKLTSVTAADTAVHYCARAMAAYNYDRGGYNDYYYMDV
Turning to B2, the MFI came to 282 MFI in assay [5], 8 MFI in assay [6] and 6 MFI in [7]. The Neutralization titer SK50 was 1.49 µg/mL in [8]; over 40 µg/mL in assay [9]; 1.77 µg/mL in [10]; over 40 µg/mL in assay [11]; 6.5 µg/mL in assay [12].

B3: CR8055 (antibody, V domains shown)
VH: EIVLTQSPDFQSVAPKEKVTITCRASRSIGSDLHWFQQRPDQSPKLLIKFASQSMSGVPSRFSGSGSGRDFTLTISSLEAEDAATYYCHQSSSLPLT
VL: EVQLVESGGGLVQPGGSLRLSCAASGFTDSVIFMSWVRQAPGKGLECVSIIYIDDSTYYADSVKGRFTISRHNSMGTVFLEMNSLRPDDTAVYYCATESGDFGDQTGPYHYYAMDV
For the molecule B3, the Neutralization titer SK50 in assay [8] was 3.38 µg/mL; in [9] it was over 40 µg/mL; in [10], 1.07 µg/mL; in assay [13], over 40 µg/mL; in assay [11] it was over 40 µg/mL; in [14], 1.15 µg/mL. Moreover, the Neutralization titer SK50 in assay [12], in assay [15] and in assay [16] was over 40 µg/mL throughout. Besides, the figures for the MFI in assay [17], in assay [18] and in assay [19] were 433 MFI, 31 MFI and 26 MFI, respectively.
